# Laboratory results taken from US20110166331A1 (Amgen, published 2011).
# Key:
# [1] = biological target: T1, cynomolgus IL-17RA on the cell surface (cynomolgus); test: FACS competition, non-clonal hybridoma supernatant vs biotin-huIL-17A (500 ng/ml) on cynomolgus IL-17RA+ CHO cells; lower = more inhibition
# T1 construct: whole, on cells; also called CHO-cynoIL-17RA; cyno IL-17RA+ CHO cells
# Experimental: Non-clonal hybridoma supernatants were prepared in volumes of 1-2 mls (the Ig concentrations were not determined for these supernatants). […] Anti-IL-17RA non-clonal hybridomas were selected for sub-cloning based on their performance in the CHO-IL-17RA FACS assay and HFF bioassay.
# D152R IL-17RA mutant = biological target: T2, D152R IL-17RA mutant (human, UniProt Q96F46 33-320); test: Bio-Plex titration on His-captured D152R IL-17RA mutant; signal as percent of maximum wild-type MFI
# T2 construct: Arginine scan mutant of huIL-17RA-FLAG-polyHis; also called huIL-17RA-FLAG-polyHis D152R
# Experimental: Twelve bead codes of pentaHis-coated beads (Qiagen, Valencia, Calif.; see www1.qiagen.com) were used to capture histidine-tagged protein.
# To prepare the beads, 100 ul of wild-type IL-17RA and IL-17RA arginine mutant supernatants from transient expression culture were bound to penta-His-coated beads overnight at 4° C. or 2 hours at room temperature with vigorous shaking. The beads were washed as per the manufacturer's protocol and the 12 bead set was pooled and aliquoted into 2 or 3 columns of a 96-well filter plate (Millipore, Bellerica, Mass., product #MSBVN1250) for duplicate or triplicate assay points, respectively. 100 ul anti-IL-17RA antibodies in 4-fold dilutions were added to the wells, incubated for 1 hour at room temperature, and washed. […] Beads were resuspended in 1% BSA, shaken for 3 minutes, and read on the Bio-Plex workstation. Antibody binding to IL-17RA arginine mutant protein was compared to antibody binding to the human IL-17RA wild-type from the same pool. A titration of antibody over approximately a 5 log scale was performed. Median Fluorescence Intensity (MFI) of IL-17RA arginine mutant proteins was graphed as a percent of maximum wild-type human IL-17RA signal.
# [2] = biological target: T1, cynomolgus IL-17RA on the cell surface; test: FACS competition, non-clonal hybridoma supernatant vs biotin-huIL-17A (500 ng/ml) on cyno IL-17RA+ cells; lower = more inhibition
# [3] = biological target: T1, cynomolgus IL-17RA on the cell surface; test: FACS competition, non-clonal hybridoma supernatant vs biotin-huIL-17A (500 ng/ml) on cyno IL-17RA+ CHO cells; lower = more inhibition
# Experimental: The anti-IL-17RA antibodies were characterized. Non-clonal hybridoma supernatants were prepared in volumes of 1-2 mls (the Ig concentrations were not determined for these supernatants).
# [4] = biological target: T1, cynomolgus IL-17RA on the cell surface; test: cell-based or functional assay
# T2 sequence (Q96F46 other isoform, or with tags, fused parts or gaps D152R D152R limits assumed): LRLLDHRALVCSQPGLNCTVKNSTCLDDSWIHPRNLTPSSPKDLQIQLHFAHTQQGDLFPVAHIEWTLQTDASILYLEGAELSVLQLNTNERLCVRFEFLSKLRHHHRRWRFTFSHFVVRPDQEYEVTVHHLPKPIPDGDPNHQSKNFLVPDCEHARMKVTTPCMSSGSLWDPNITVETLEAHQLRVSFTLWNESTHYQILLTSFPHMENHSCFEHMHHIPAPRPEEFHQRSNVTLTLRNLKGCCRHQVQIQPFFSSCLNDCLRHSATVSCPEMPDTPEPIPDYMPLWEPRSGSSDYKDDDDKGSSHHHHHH
MFI [1],MFI [2],Binder,other results
6,,"AMH13/AML13 (antibody, IgG2, V domains shown, also called AM-13) VH: QVQLVESGGGVVQPGRSLRLSCAASGFTFSSYGMQWVRQAPGKGLEWVAVIWYDGNKKYYADSVKGRFTISRDNSKNTLYLQMNSLRAEDTAVYYCARGRVRDYYYGMDVWGQGTTVTVSS VL: DIVMTQTPLSLSVTPGQPASIACKSSQSLLHSDGKTYLYWYLQKPGQPPQLLIYEVSTRFSGVPDRFSGSGSGTDFTLKISRVEAEDVGVFYCMQSIQLPLTFGGGTKVEIK",
,,"AMH18/AML18 (antibody, IgG2, V domains shown, also called AM-18) VH: QVQLVQSGAEVKKPGASVKVSCKASGYSFTDYYMHWVRQAPGQGLEWMGWMHPNSGGTDLAQRFQGRVTMTRDTSISTAYMELSRLRSDDTAVYYCARGGYCSTLSCSFYWYFDLWGRGTLVTVSS VL: not shown",EC50 (read off the curve) (D152R IL-17RA mutant): ~0.08 nM
,18,"AMH22/AML22 (antibody, IgG2, V domains shown, also called AM-22) VH: QVQLVQSGAEVKKPGASVKVSCKASGYTFTRYGISWVRQAPGQGLEWMGWISAYSGNTNYAQKLQGRVTMTTDTSTSTAYMELRSLRSDDTAVYYCARRQLYFDYWGQGTLVTVSS VL: EIVMTQSPATLSVSPGERVTLSCRASQSVSSNLAWFQQKPGQAPRPLIYDASTRAAGIPARFSGSGSGTDFTLTISSLQSEDFAVYYCQQYDNWPLTFGGGTKVEIK",
8,,"AMH17/AML17 (antibody, V domains shown, also called AM-17) VH: QVQLVQSGAEVKKPGAAVKVSCKATGYTLTSYGISWVRQAPGQGLEWMGWISAYSGNTKYAQKLQGRVTMTTDTSTSTAYMELRSLRSDDTAVYYCARKQLVFDYWGQGTLVTVSS VL: not shown",
,,"AMH15/AML15 (antibody, IgG2, V domains shown, IgG2 XenoMouse; also called AM-15) VH: QVQLVESGGGVVQPGRSLRLSCAASGFTFSSYGMQWVRQAPGKGLEWVAVIWYDGNKKYYADSVKGRFTISRDNSKNTLYLQMNSLRAEDTAVYYCARGRVRDYYYGMDVWGQGTTVTVSS VL: EIVMTQSPATLSVSPGERVTLSCRASQSVSSNLAWFQQKPGQAPRPLIYDASTRAAGIPARFSGSGSGTDFTLTISSLQSEDFAVYYCQQYDNWPLTFGGGTKVEIK",MFI [3]: 6
6,,"AMH12/AML12 (antibody, IgG2, V domains shown, also called AM-12) VH: QVQLVQSGAEVKKPGASVKVSCKASGYTLTSYGISWVRQAPGQGLEWMGWISTYKGNTNYAQKLQGRVTMTTDTSTSTAYMELRSLRSDDTAVYYCARKQLVFDYWGQGTLVTVSS VL: EIVMTQSPATLSVSPGERATLSCRASQSISSSLAWYQQKPGQAPRLLIYGASTRATGIPARFSGSGSGTEFTLTISSLQSENFAVYYCQQYDNWPLTFGGGTKVEIK",
,,"AMH14/AML14 (antibody, IgG2, V domains shown, Fully human mAb from IgG2 XenoMouse mice; also called AM-14) VH: QVQLVQSGAEVKKPGASVKVSCKASGYTFTRYGISWVRQAPGQGLEWMGWISTYSGNTNYAQKLQGRVTMTTDTSTSTAYMELRSLRSDDTAVYYCARRQLYFDYWGQGTLVTVSS VL: EIVMTQSPATLSVSPGERATLSCRASQSVSSNLAWFQQKPGQAPRPLIYDASTRATGVPARFSGSGSGTDFTLTISSLQSEDFAVYYCQQYDNWPLTFGGGTKVEIK","IC50, cynomolgous IL-17A-induced IL-6 production from JTC-12 cells [4]: ~1.2 nM; MFI [3]: 10"
6,,"AMH16/AML16 (antibody, IgG2, V domains shown, also called AM-16) VH: QVQLVQSGAEVKKPGASVKVSCKASGYTFTSYGISWVRQAPGQGLEWMGWISAYNGNTKYAQKLQGRVTMTTDTSTSTVYMELRSLRSDDTAVYYCARKQLVFDYWGQGTLVTVSS VL: EIVMTQSPATLSVSPGERATLSCRASQSISTSLAWYQQKPGQAPRLLIYGTSTRATGIPARFSGSGSGTEFTLTISSLQSEDFAVYFCQQYDIWPLTFGGGTKVEIK",
,9,"AMH11/AML11 (antibody, IgG2, V domains shown, also called AM-11) VH: QVQLVESGGGVVQPGRSLRLSCATSGITFSSYGMHWVRQAPGKGLEWVAVIWYDGSNKYYADSVKGRFTISRDNSKNTLYLQMNSLRAEDTAVYYCARDTKDYWGQGTLVTVSS VL: EIVMTQSPATLSVSPGERATLSCRASQSVSSNLAWYQQKPGQAPRLLIYGASTRAAGIPARFSGGGSGTAFTLTISNLQSEDFAVYYCQHYINWPKWTFGQGTKVDIK",
,9,"AMH5/AML5 (antibody, IgG2, V domains shown, IgG2 XenoMouse; also called AM-5) VH: QVQLQESGPGLVKPSETLPLTCTVSGGSIRSYYWSWIRQPAGKGLEWIGRIYRSGNTIYNPSLKSRVTMSIDTSKNQFSLTLSSVTAADTAVYYCARENYSESSGLYYYYGMDVWGQGTTVTVSS VL: DIQMTQSPSSLSASVGDRVTITCRASQGIRNDLGWYQQKPGKAPKRLIYAASSFQSGVPSRFSGSGSGTGFTLTISSLQPEDFATYYCLQHNSYPPTFGQGTKVEIK",
,11,"AMH1/AML1 (antibody, V domains shown, also called AM-1) VH: QVQLQESGPGLVKPSETLSLTCTVSGGSISNYYWNWIRQSPGKGLEWIGDIYYSGSTNYNPSLKSRVTISVDTSKNQFSLKLSSVTTADTAVYYCARDGELANYYGSGSYQFYYYYGMDVWGQGTTVTVSS VL: DILMTQSPSSLSASVGDRVTITCRASQGIRNDLGWYQQKPGKAPKRLIYAASSLQSGVPSRFSGSGSGTEFTLTISSLQPEDFATYYCLQHNSNPFTFGPGTKVDIK",
,,"AMH21/AML21 (antibody, IgG2, V domains shown, also called AM-21) VH: EVQLVESGGGSVQPGGSLRLSCAASGFTFSSYSMNWVRQAPGKGLEWVSIISSRSSIIHYADSVKGRFTISRDNAKNSLYLQMNSLRDEDTAVYYCARPKVGGGMDVWGQGTTVTVSS VL: DIQMTQSPSSLSASVGDRVTITCRASQGISNYLAWYQQKPGKFPELLIYAASTLQSGVPSRFSGSGSGTDFTLTISSLQPEDVATYYCQKYNRAPFTFGPGTKVDIK",MFI [3]: 6
